# Experimental data published in article doi:10.1101/2020.05.04.070177, “Mechanistic insights into RNA binding and RNA-regulated RIG-I ubiquitination by TRIM25” (bioRxiv, 2020).
# B1: pre-let-7 stem (stem-fusion) (structured_RNA)
# RNA: GUAUAGUUCAACUAUAC
# B2: DENV-SL (structured_RNA)
# RNA: GCAGGUCGGAUUAAGCCAUAGUACGGGAAAAACUAUGCUACCUG
# B3: roX2 stem-loop (SL7 in text, SL6 in Table 2) (structured_RNA)
# RNA: GUGUAAAAUGAUGGAAUAUAUACUAUCGUUUUACGC
# B4: TRIM25 CC-PRY/SPRY (aa 189-630) (domain or fragment, human, UniProt Q14258 189-630, looked up)
# chain: ASLSQASADLEATLRHKLTVMYSQINGASRALDDVRNRQQDVRMTANRKVEQLQQEYTEMKALLDASETTSTRKIKEEEKRVNSKFDTIYQILLKKKSEIQTLKEEIEQSLTKRDEFEFLEKASKLRGISTKPVYIPEVELNHKLIKGIHQSTIDLKNELKQCIGRLQEPTPSSGDPGEHDPASTHKSTRPVKKVSKEEKKSKKPPPVPALPSKLPTFGAPEQLVDLKQAGLEAAAKATSSHPNSTSLKAKVLETFLAKSRPELLEYYIKVILDYNTAHNKVALSECYTVASVAEMPQNYRPHPQRFTYCSQVLGLHCYKKGIHYWEVELQKNNFCGVGICYGSMNRQGPESRLGRNSASWCVEWFNTKISAWHNNVEKTLPSTKATRVGVLLNCDHGFVIFFAVADKVHLMYKFRVDFTEALYPAFWVFSAGATLSICSPK
# notes: TRIM25 coiled-coil (CC), L2 linker and PRY/SPRY domain, aa 189-630; also called TRIM25 189-630
# B5: pre-let-7 loop (ssRNA)
# RNA: UAAAAGGAGAU
# B6: Lnczc3h7a-SL (structured_RNA)
# RNA: UUUUAUCUGAGUUGGAGGUGAAG
# Legend:
# [1] = biological target: T1, TRIM25 PRY/SPRY (UniProt Q14258 439-630); test: NMR; CSPs at site 2 only; ITC and filter binding: 20 mM MES pH 6.5, 75 mM NaCl, 0.5 mM TCEP (ITC 20 C, filter binding on ice); NMR: 20 mM Na phosphate pH 6.5, 150 mM NaCl, 2 mM TCEP, 293 K; conditions: protein: recombinant; tags: His-Trx (removed); chain copies: 3; hairpin
# [2] = biological target: T2, TRIM25 CC-PRY/SPRY penta-mutant (UniProt Q14258 189-630, K283A;K285A;H505E;K508E;K602E); test: ITC; ITC and filter binding: 20 mM MES pH 6.5, 75 mM NaCl, 0.5 mM TCEP (ITC 20 C, filter binding on ice); NMR: 20 mM Na phosphate pH 6.5, 150 mM NaCl, 2 mM TCEP, 293 K; conditions: protein: recombinant; tags: His-Trx (removed); chain copies: 2; hairpin
# Target sequence in this assay (Q14258 189-630 K283A/K285A/H505E/K508E/K602E): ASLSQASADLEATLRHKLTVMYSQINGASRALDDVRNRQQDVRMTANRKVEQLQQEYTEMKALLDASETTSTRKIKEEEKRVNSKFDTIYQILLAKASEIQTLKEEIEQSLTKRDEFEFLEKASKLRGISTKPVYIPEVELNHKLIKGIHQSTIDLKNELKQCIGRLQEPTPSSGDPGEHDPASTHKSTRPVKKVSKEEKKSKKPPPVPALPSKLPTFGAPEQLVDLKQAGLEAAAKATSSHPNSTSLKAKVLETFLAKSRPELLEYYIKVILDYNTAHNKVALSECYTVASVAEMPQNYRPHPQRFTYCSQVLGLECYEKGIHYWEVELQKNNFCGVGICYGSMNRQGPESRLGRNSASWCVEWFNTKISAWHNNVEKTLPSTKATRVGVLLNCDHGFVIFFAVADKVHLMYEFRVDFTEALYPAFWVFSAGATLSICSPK
# [3] = biological target: T3, TRIM25 CC-PRY/SPRY (UniProt Q14258 189-630); test: filter binding; ITC and filter binding: 20 mM MES pH 6.5, 75 mM NaCl, 0.5 mM TCEP (ITC 20 C, filter binding on ice); NMR: 20 mM Na phosphate pH 6.5, 150 mM NaCl, 2 mM TCEP, 293 K; conditions: protein: recombinant, tags: His-Trx (removed), chain copies: 2, hairpin
# [4] = biological target: T3, TRIM25 CC-PRY/SPRY; test: ITC; second fitted site, N 0.08; ITC and filter binding: 20 mM MES pH 6.5, 75 mM NaCl, 0.5 mM TCEP (ITC 20 C, filter binding on ice); NMR: 20 mM Na phosphate pH 6.5, 150 mM NaCl, 2 mM TCEP, 293 K; conditions: protein: recombinant; tags: His-Trx (removed); chain copies: 2; hairpin
# [5] = biological target: T3, TRIM25 CC-PRY/SPRY; test: ITC; first of two fitted sites (second 106 nM); ITC and filter binding: 20 mM MES pH 6.5, 75 mM NaCl, 0.5 mM TCEP (ITC 20 C, filter binding on ice); NMR: 20 mM Na phosphate pH 6.5, 150 mM NaCl, 2 mM TCEP, 293 K; conditions: protein: recombinant; tags: His-Trx (removed); chain copies: 2; hairpin
# [6] = biological target: the molecule itself; test: NMR titration; CC-PRY/SPRY with pre-let-7 RNA added; domain-domain interaction within the construct; 1H,15N-HSQC
# [7] = biological target: T3, TRIM25 CC-PRY/SPRY; test: ITC; ITC and filter binding: 20 mM MES pH 6.5, 75 mM NaCl, 0.5 mM TCEP (ITC 20 C, filter binding on ice); NMR: 20 mM Na phosphate pH 6.5, 150 mM NaCl, 2 mM TCEP, 293 K; conditions: protein: recombinant; tags: His-Trx (removed); chain copies: 2; single strand
# [8] = biological target: T1, TRIM25 PRY/SPRY; test: as above; conditions: protein: recombinant; tags: His-Trx (removed); single strand
# [9] = biological target: T2, TRIM25 CC-PRY/SPRY penta-mutant; test: ITC; no binding detected; ITC and filter binding: 20 mM MES pH 6.5, 75 mM NaCl, 0.5 mM TCEP (ITC 20 C, filter binding on ice); NMR: 20 mM Na phosphate pH 6.5, 150 mM NaCl, 2 mM TCEP, 293 K; conditions: protein: recombinant; tags: His-Trx (removed); chain copies: 2; hairpin
# [10] = biological target: T3, TRIM25 CC-PRY/SPRY; test: ITC; first of two fitted sites; ITC and filter binding: 20 mM MES pH 6.5, 75 mM NaCl, 0.5 mM TCEP (ITC 20 C, filter binding on ice); NMR: 20 mM Na phosphate pH 6.5, 150 mM NaCl, 2 mM TCEP, 293 K; conditions: protein: recombinant; tags: His-Trx (removed); chain copies: 2; hairpin
# [11] = biological target: T3, TRIM25 CC-PRY/SPRY; test: ITC; second fitted site, N 0.10; ITC and filter binding: 20 mM MES pH 6.5, 75 mM NaCl, 0.5 mM TCEP (ITC 20 C, filter binding on ice); NMR: 20 mM Na phosphate pH 6.5, 150 mM NaCl, 2 mM TCEP, 293 K; conditions: protein: recombinant; tags: His-Trx (removed); chain copies: 2; hairpin
binder,measurement,setting,value
B1,binding result,[1],binds
B2,Kd,[2],363 ± 84 nM
same,Kd,[3],1.63 ± 0.38 nM
same,Kd,[4],106 ± 35 nM
same,Kd,[5],15.2 ± 3 nM
B3,Kd,[3]; label: 5' 32P,18.1 ± 2.2 nM
B4,binding result,[6],binds
B5,Kd,[7],4100 ± 1900 nM
same,Kd,[8],42000 ± 53000 nM
B6,binding result,[9],no binding
same,Kd,[10],486 ± 77 nM
same,Kd,[11],8900 ± 4500 nM
